The values below come from PMC3314502.

The experiment has as its target FLAG-PICK1 (rat) (UniProt Q9EP80). In words: pull-down.
UniProt Q9EP80, sequence (Q9EP80 whole entry): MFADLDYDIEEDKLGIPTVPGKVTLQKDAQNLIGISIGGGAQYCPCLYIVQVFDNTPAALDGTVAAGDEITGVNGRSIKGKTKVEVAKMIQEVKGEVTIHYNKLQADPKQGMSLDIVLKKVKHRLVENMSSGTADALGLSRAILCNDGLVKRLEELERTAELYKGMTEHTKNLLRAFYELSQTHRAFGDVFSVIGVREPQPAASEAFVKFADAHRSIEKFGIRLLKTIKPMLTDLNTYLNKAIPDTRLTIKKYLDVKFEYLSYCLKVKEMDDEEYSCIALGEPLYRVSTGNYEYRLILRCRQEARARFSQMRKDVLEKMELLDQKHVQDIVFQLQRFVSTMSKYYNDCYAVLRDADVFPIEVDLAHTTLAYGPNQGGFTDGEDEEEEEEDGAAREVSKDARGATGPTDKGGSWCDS

Consider “pep2-EVKI, point mutant of the C-terminal 11 amino acids of GluR2 (from UniProt P19491 873-883) (peptide)”, for which the percent of PICK1 retained by GST-ct-GluR5 (2b) with the peptide worked out at 8%.
